Experimental data reported in patent publication US20100047170.

What was measured:
[1] = target: DQ Bovine Serum Albumin, fluorescent quenched (UniProt P02769)
[2] = tested on: DQ Gelatin from pig skin, fluorescein conjugate (Invitrogen)
[3] = target: DQ collagen, type I from bovine skin, fluorescein conjugate (Invitrogen) (UniProt P02453)
[4] = tested on: DQ collagen, type IV from human placenta, fluorescein conjugate (Invitrogen)

Measured: hydrolysis of FITC-quenched protein (fluorescence increase)

Chain of DQ Bovine Serum Albumin, fluorescent quenched (P02769 25-607): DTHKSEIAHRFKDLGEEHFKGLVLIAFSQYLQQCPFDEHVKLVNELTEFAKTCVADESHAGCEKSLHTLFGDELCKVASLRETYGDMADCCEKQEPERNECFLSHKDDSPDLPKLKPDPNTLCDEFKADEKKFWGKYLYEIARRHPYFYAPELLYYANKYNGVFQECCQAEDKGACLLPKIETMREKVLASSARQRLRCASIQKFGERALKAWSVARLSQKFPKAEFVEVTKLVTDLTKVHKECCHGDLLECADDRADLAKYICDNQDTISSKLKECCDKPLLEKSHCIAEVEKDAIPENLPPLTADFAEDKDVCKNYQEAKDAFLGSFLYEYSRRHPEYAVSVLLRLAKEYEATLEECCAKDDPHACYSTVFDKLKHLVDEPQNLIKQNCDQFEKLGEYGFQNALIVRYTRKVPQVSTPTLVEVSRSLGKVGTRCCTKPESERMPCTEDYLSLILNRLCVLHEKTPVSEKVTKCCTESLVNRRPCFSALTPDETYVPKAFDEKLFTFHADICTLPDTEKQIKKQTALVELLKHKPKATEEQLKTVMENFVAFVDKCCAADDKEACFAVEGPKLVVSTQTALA
Chain of DQ collagen, type I from bovine skin, fluorescein conjugate (Invitrogen) (P02453 162-1217, chain 1 of 2): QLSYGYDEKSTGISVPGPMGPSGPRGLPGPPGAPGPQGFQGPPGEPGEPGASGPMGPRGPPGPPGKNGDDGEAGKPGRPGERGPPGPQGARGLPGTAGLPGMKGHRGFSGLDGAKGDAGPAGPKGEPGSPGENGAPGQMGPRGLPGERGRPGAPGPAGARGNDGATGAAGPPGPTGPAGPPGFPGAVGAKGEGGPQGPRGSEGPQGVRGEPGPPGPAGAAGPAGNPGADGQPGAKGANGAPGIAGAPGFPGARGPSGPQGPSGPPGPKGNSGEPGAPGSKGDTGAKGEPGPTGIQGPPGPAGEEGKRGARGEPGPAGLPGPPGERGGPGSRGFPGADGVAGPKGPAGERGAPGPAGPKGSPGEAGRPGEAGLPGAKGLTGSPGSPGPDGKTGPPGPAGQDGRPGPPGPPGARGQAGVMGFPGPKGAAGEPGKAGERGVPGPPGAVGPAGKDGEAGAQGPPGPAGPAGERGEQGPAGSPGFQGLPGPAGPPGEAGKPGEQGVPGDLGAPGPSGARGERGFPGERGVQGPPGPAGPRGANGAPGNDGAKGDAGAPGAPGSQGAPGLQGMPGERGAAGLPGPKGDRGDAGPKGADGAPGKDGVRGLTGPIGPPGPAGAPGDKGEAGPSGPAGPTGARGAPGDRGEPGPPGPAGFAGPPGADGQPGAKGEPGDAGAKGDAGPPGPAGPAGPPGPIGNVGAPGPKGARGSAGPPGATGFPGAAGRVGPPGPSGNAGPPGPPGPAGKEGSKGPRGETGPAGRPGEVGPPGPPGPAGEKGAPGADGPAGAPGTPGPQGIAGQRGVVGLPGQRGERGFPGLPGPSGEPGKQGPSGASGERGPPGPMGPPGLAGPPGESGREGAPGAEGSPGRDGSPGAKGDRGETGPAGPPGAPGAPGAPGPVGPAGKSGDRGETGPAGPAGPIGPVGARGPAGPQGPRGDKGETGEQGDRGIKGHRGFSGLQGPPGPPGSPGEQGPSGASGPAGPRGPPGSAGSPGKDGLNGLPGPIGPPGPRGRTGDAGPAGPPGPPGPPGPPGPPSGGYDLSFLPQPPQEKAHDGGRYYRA
Chain of DQ collagen, type I from bovine skin, fluorescein conjugate (Invitrogen) (P02453 other isoform, or with tags, fused parts or gaps, chain 2 of 2): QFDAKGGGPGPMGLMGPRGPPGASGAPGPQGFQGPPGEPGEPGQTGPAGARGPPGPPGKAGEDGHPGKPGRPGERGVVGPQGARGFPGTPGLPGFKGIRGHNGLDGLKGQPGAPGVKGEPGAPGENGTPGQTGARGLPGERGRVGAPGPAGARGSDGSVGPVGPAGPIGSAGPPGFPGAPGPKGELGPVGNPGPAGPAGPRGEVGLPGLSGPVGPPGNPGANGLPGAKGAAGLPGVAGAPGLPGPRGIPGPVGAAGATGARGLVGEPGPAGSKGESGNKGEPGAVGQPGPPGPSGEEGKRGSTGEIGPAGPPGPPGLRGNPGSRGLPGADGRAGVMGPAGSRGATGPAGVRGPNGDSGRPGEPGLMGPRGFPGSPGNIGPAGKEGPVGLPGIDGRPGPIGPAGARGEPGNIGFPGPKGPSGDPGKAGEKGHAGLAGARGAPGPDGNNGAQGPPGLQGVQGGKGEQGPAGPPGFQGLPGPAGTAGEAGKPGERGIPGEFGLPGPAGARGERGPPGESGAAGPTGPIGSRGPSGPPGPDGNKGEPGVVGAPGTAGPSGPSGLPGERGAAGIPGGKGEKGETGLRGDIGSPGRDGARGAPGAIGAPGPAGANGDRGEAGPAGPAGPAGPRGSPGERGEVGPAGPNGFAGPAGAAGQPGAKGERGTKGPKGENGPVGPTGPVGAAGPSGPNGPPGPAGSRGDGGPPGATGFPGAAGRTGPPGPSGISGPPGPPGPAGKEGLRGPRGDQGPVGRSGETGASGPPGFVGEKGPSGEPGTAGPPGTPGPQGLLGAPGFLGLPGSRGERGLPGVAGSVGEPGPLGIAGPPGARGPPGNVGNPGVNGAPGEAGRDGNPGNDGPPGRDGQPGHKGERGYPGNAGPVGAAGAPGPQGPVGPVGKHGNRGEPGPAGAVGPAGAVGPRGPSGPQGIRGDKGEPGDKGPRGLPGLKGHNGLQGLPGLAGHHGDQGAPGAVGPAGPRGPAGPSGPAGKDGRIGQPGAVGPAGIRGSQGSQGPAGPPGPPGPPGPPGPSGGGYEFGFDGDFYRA

His tagged extra cellular domain of Prostate Specific Membrane Antigen (PSMA), purified from S2 cells
no digestion of any of the proteins: all assays above
